From patent US8187838B2, “β-Galactoside-α2, 6-sialyltransferase, a gene encoding thereof, and a method for producing thereof” (Japan Tobacco Inc., priority 2006, dated 2012)

How the values were obtained:
[1] = Confirmation of binding mode of sialic acid with pyridylaminated lactose, HPLC of product; format: biochemical; details: crude enzyme solution, CMP-NeuAc, 25° C., 18 hours
Experimental: To determine the binding mode of sialic acid, a reaction using PA-lactose as a substrate was then performed. The enzymatic reaction was accomplished by using the resulting crude enzyme solution and a pyridylaminated sugar chain as a glycosyl acceptor substrate. The pyridylaminated sugar chain used for analysis was pyridylaminated lactose (Galβ1-4Glc-PA, Takara Bio Inc., Japan). To 5 μl of the crude enzyme solution, 1.5 μl of 5 mM CMP-NeuAc and 1.5 μl of 10 pmol/μl glycosyl acceptor substrate were added and reacted at 25° C. for 18 hours. After the reaction, the reaction solution was treated at 100° C. for 2 minutes to inactivate the enzyme, followed by HPLC to analyze the reaction product. The HPLC system used was Shimadzu LC10A (Shimadzu Corporation, Japan) and the analytical column used was Takara PALPAK Type R (Takara Bio Inc., Japan). […] The analysis was performed under the following conditions: flow rate: 1 ml/min, column temperature: 40° C., detection: fluorescence (Ex: 320 nm, Em: 400 nm).
The crude enzyme solution prepared in (4) above from the ISH224-N1C0 or ISH224-N0C0 clone was used to examine whether sialyltransferase expressed by E. coli cells into which ISH224-N0C0/pTrc or ISH224-N1C0/pTrc had been introduced had β-galactoside-α2,6-sialyltransferase activity. […] As a result, PA-6′-sialyllactose (Neu5Acα2-6Galβ1-4Glc-PA) was detected, as in the case of Example 1.

[2] = Time-dependent induction of expression, sialyltransferase activity and productivity in E. coli homogenate; format: biochemical; details: for Total enzyme activity (unit): 0.3 L culture; for Amount of transferred sialic acid / Radioactivity (CPM): 1 minute, 30° C.; for Radioactivity (CPM): crude enzyme diluted 200-fold
Experimental: A time-dependent induction experiment of protein expression was performed on the ISH224-N0C0 and ISH224-N1C0 clones obtained in Example 2. A single colony of E. coli TB1 having the expression vector pTrc99A carrying each clone was inoculated into LB medium (6 ml) containing an antibiotic, ampicillin (final concentration 100 μg/mL), and pre-cultured at 30° C. for about 8 hours. This pre-cultured solution was inoculated into LB medium (300 ml) containing and antibiotic, ampicillin (final concentration 100 μg/mL) and cultured with shaking at 30° C. When OD600 reached around 0.5, IPTG (isopropyl-β-D(−)-thiogalactopyranoside, Wako Pure Chemical Industries, Ltd., Japan) was added at a final concentration of 1 mM, followed by culturing with shaking at 30° C. At 4, 6, 22 and 28 hours after culturing, the cells in each culture solution were collected by centrifugation. These cells were suspended in 20 mM Bis-Tris buffer (pH 6.0) containing 0.336% […] Triton® X-100, and ultrasonically homogenized under ice cooling. The resulting homogenate was defined as a crude enzyme solution, diluted 200-fold with 20 mM cacodylate buffer (pH 5.0) containing 0.336% Triton X®-100, and then provided for activity measurement. The reaction was carried out in duplicate. The reaction conditions are as indicated in the footnote of Table 2.
Reaction Conditions Reaction composition:
Reaction time: 1 minute Reaction temperature: 30° C.

B1: ISH224-N1C0 (protein, listed as Photobacterium sp.)
chain: MSEENTQSIIKNDINKTIIDEEYVNLEPINQSNISFTKHSWVQTCGTQQLLTEQNKESISLSVVAPRLDDDEKYCFDFNGVSNKGEKYITKVTLNVVAPSLEVYVDHASLPTLQQLMDIIKSEEENPTAQRYIAWGRIVPTDEQMKELNITSFALINNHTPADLVQEIVKQAQTKHRLNVKLSSNTAHSFDNLVPILKELNSFNNVTVTNIDLYDDGSAEYVNLYNWRDTLNKTDNLKIGKDYLEDVINGINEDTSNTGTSSVYNWQKLYPANYHFLRKDYLTLEPSLHELRDYIGDSLKQMQWDGFKKFNSKQQELFLSIVNFDKQKLQNEYNSSNLPNFVFTGTTVWAGNHEREYYAKQQINVINNAINESSPHYLGNSYDLFFKGHPGGGIINTLIMQNYPSMVDIPSKISFEVLMMTDMLPDAVAGIASSLYFTIPAEKIKFIVFTSTETITDRETALRSPLVQVMIKLGIVKEENVLFWADLPNCETGVCIAV
[1]
  β-galactoside-α2,6-sialyltransferase activity (PA-6′-sialyllactose detected): found to have β-galactoside-α2,6-sialyltransferase activity
[2]
  fold higher productivity than Pasteurella multocida-derived α2,3-sialyltransferase (6,000 U/L): about 1.8 fold
  fold higher productivity than Photobacterium damselae-derived recombinant β-galactoside-α2,6-sialyltransferase (224.5 U/L): about 48 fold
[2]; 4 hours after IPTG addition
  Enzyme concentration in crude enzyme solution (unit/ml): 6.8 unit/ml
  Productivity (U/L of medium): 589 U/L of medium
  Total enzyme activity (unit): 177 unit
  Amount of transferred sialic acid: 0.17 nmol
  Radioactivity (CPM): 142.5 CPM
[2]; 6 hours after IPTG addition
  Enzyme concentration in crude enzyme solution (unit/ml): 14.8 unit/ml
  Productivity (U/L of medium): 1285 U/L of medium
  Total enzyme activity (unit): 385 unit
  Amount of transferred sialic acid: 0.37 nmol
  Radioactivity (CPM): 311.0 CPM
[2]; 22 hours after IPTG addition
  Enzyme concentration in crude enzyme solution (unit/ml): 86.2 unit/ml
  Productivity (U/L of medium): 10776 U/L of medium
  Total enzyme activity (unit): 3233 unit
  Amount of transferred sialic acid: 2.16 nmol
  Radioactivity (CPM): 1809.0 CPM
[2]; 22 hours after IPTG addition, listed as ISH224-N1C0 clone
  Productivity (U/L of medium): 10,776 U/L of medium
[2]; 28 hours after IPTG addition
  Enzyme concentration in crude enzyme solution (unit/ml): 69.5 unit/ml
  Productivity (U/L of medium): 8946 U/L of medium
  Total enzyme activity (unit): 2684 unit
  Amount of transferred sialic acid: 1.74 nmol
  Radioactivity (CPM): 1459.0 CPM
[2]; culture at 30° C., 1 mM IPTG
  time of maximum β-galactoside-α2,6-sialyltransferase activity after IPTG addition: 22 h
